± gives the uncertainty stated by the source.
Assay: protein stability index of a GFP-peptide fusion (yeast GPS) (PSI 1-4); higher = more stable; sorted into four equal gates, so the index is relative within each strain
How it was run: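 Plasmids isolated from each sorting gate were PCR-amplified and Illumina-sequenced, and barcodes assigned the reads to strains. The gates, four of equal size, were set by GFP/Cherry fluorescence ratio on mid-log cultures in leucine-free medium. These cultures were yeast carrying a pooled library of tiled 17-residue yeast protein peptides fused downstream of GFP on a plasmid that also expresses Cherry. The protein stability index is the sum of every gate's read frequency times its gate number.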

Sequence	protein stability index (doa10∆)	protein stability index (pdr5∆)	protein stability index (san1∆)	protein stability index (ubr1∆)
RLDSYKVIEQPITSETA [RPL25]	1.94 ± 0.055	2.31 ± 0.079	2.31 ± 0.079	2.5 ± 0.067
SGNTNGAGSAFGFSSSG [YOR098C/NUP1]	3.25 ± 0.071	3.13 ± 0.064	3.07 ± 0.064	3.02 ± 0.087
IAAYIRRHRNPDLQFIV [SMC1]	1.16 ± 0.048	1.21 ± 0.047	1.2 ± 0.079	1.07 ± 0.04
VTVHSLTGEATANALPL [RPL4A]	2.75 ± 0.069	2.76 ± 0.053	2.17 ± 0.052	2.86 ± 0.041
AQANNNNNGLPQNGNIN [GAL11]	3.04 ± 0.049	3.11 ± 0.049	3.05 ± 0.056	2.98 ± 0.038
FVLLEIEPVTKVSSLKM [YCS4]	2.34 ± 0.049	2.18 ± 0.066	2.48 ± 0.059	2.35 ± 0.054
DQSNVQYYLSVLNQQLP [BRR2]	2.96 ± 0.082	3.03 ± 0.072	3.02 ± 0.06	3.03 ± 0.06
SQFINDHILFTKTFIFI [SRB8]	1.56 ± 0.054	1.48 ± 0.056	1.47 ± 0.089	1.41 ± 0.033
NDKLIVDNDNWVYKTKG [RPN1]	2.81 ± 0.14	2.77 ± 0.18	3.18 ± 0.28	
IFEISLQRKDYTSIVQC [YML103C/NUP188]	1.76 ± 0.051	1.75 ± 0.048	2.05 ± 0.12	1.88 ± 0.052
PGNGKHASENISLSFSR [SIR4]	2.49 ± 0.081	2.88 ± 0.062	2.97 ± 0.061	3.05 ± 0.058
PAKSASARGSYLRVSFK [RPL17A]	3.2 ± 0.046	3.27 ± 0.051	3.091 ± 0.029	3.14 ± 0.041
SQEQGMGMDLYKTSKAA [FAS1]	3.05 ± 0.086	3.15 ± 0.07	2.72 ± 0.059	3.3 ± 0.057
HINKIPSNSTTTLHGPG [SRB8]	2.89 ± 0.059	3.17 ± 0.059	2.96 ± 0.052	3.11 ± 0.039
ILKDLIYRGVLNDENSD [SMC1]	1.81 ± 0.059	2.18 ± 0.076	1.92 ± 0.13	2.21 ± 0.066
SLFSHRKHTRGDVSSGL [BRN1]	3.28 ± 0.19	3.01 ± 0.17	3.28 ± 0.16	3.22 ± 0.059
FSSNLSYANHLEESDVE [YOR098C/NUP1]	2.45 ± 0.087	2.22 ± 0.059	1.91 ± 0.082	1.89 ± 0.052
NTSSLQSFQNPFTASQS [YIL149C/MLP2]	2.36 ± 0.05	2.02 ± 0.038	2.45 ± 0.048	2.36 ± 0.034
KQRAGTASFIPLDTIET [SMC1]	2.62 ± 0.06	2.82 ± 0.064	2.65 ± 0.056	2.66 ± 0.051
VYESEMEQCKQRYQDLS [YIL149C/MLP2]	3.27 ± 0.09	3.36 ± 0.11	3.03 ± 0.081	3.24 ± 0.094

Sequence	protein stability index (doa10∆)	protein stability index (pdr5∆)	protein stability index (san1∆)	protein stability index (ubr1∆)
NVTLVNGKRRMNPGPSV [RPS30A]	2.37 ± 0.059	2.79 ± 0.035	2.67 ± 0.055	2.65 ± 0.039
KIALREYINNCKKNTKK [POP4]		2.86 ± 0.27	3.01 ± 0.087	2.89 ± 0.15
PPSVTLQDWQREDEFGS [YDL088C/ASM4]	3.1 ± 0.11	3.31 ± 0.074	2.99 ± 0.065	3.24 ± 0.054
NILLRERDSYKLLASTE [YIL149C/MLP2]	2.59 ± 0.058	2.53 ± 0.055	2.49 ± 0.063	2.4 ± 0.055
KEVASLPNKSTISKTVS [FAS2]	3.09 ± 0.12	3.05 ± 0.12	3 ± 0.08	3.21 ± 0.14
PFMLQWGIPLIKELRSK [FAS1]	1.69 ± 0.069	1.63 ± 0.074	1.44 ± 0.1	1.58 ± 0.049
GGADQVTRTQQWSMVAQ [SWI1]	3.15 ± 0.077	3.31 ± 0.075	3.03 ± 0.063	3.07 ± 0.052
KKRSKVRKETYSSYIYK [HTB2]	3.15 ± 0.074	3.33 ± 0.066	3.14 ± 0.071	3.38 ± 0.052
PPKHTELLLTTLSVSHG [SSN2]	1.79 ± 0.038	1.8 ± 0.038	1.55 ± 0.07	1.61 ± 0.027
LISRMIFIATQLEKKIR [BRR2]	1.75 ± 0.075	1.9 ± 0.059	1.28 ± 0.12	2.03 ± 0.054
QNFAEFMTKLLEVANDL [IRR1]	2.06 ± 0.11	2.29 ± 0.097	3.13 ± 0.085	2.65 ± 0.14
LVLADAFDIELSEFGIK [YCS4]	2.92 ± 0.052	3.06 ± 0.057	2.9 ± 0.068	2.89 ± 0.046
ESVLPAARYDYAVAEQC [QCR2]	3.15 ± 0.11	3.25 ± 0.11	2.97 ± 0.11	1.98 ± 0.06
TELKKKLDDLENTKDNL [SMC1]	3.01 ± 0.11	2.94 ± 0.12	3.09 ± 0.12	2.72 ± 0.14
VYTQSNGKTRTLENTLK [RPS2]	3.45 ± 0.17	3.16 ± 0.1	3.24 ± 0.075	3.38 ± 0.07
IAQSKKKNNKIKESSKK [SRP21]	3.09 ± 0.1	2.96 ± 0.087	3.01 ± 0.072	3.16 ± 0.063
FKGALTIKILPENTAMF [YMR129W/POM152]	2.32 ± 0.083	2.14 ± 0.052	2.33 ± 0.056	2.25 ± 0.05
EGIIKPISKHSKQAIYT [RPS25A]	1.65 ± 0.065	2.03 ± 0.057	1.47 ± 0.095	1.72 ± 0.056
GSKQADRMAKYLHIRDK [PGD1]	3.08 ± 0.12	3.3 ± 0.097	3.09 ± 0.057	3.14 ± 0.071
GENNINFQKASATLDGC [BRN1]	2.94 ± 0.23	3.3 ± 0.21	3.12 ± 0.25	

— the supplement of paper PMC9732359
